In PMC4128677, “Somatostatin Analogues for Receptor Targeted Photodynamic Therapy” (PLoS ONE, 2014):
Like-named read-outs stand apart in the source and are kept apart here. Positions of bridges follow the written chain, without caps; N, C: chain ends. Non-standard residues stand in square brackets, D forms with d. Residues, ends and D or L forms follow the SMILES beside them. *: point of attachment. X1 = C=Cc1c(C)c2cc3nc(c(CC(=O)O)c4[nH]c(cc5nc(cc1[nH]2)C(C)=C5CC)c(C)c4C(=O)O)[C@@H](CCC(=O)*)[C@@H]3C

Assays:
[1] = pH titration of fluorescence/absorbance (pKa); type: physicochemical
Procedure: pH measurements. The pH titration of PBS was performed with HNO3 and NaOH over pH 4.0-8.5. The final concentration of Ce6 and Ce6-conjugates in solution was 0.8 µM. The pH was measured by Sentron pH meter (Sentron Europe, NL) and the absorption and fluorescence emission (λexc = 408 nm) profiles of solutions were recorded. The inflection point of titration curves (pKa) were evaluated as reported. Briefly, the results of fluorescence titrations are presented in terms of a plot of fluorescence intensity as a function of pH with the constant concentration of the compound used throughout measurements. However, variations of fluorescence intensity are due to at least two contributions: the changes of molar extinction coefficient (differed absorbed intensity) and the changes of quantum efficiency with pH. To eliminate the influence of the molar extinction coefficient variations, the ratio of fluorescence intensity at the peak position to the absorbance at the excitation wavelength was plotted, followed by sigmoidal function fitting procedure (Figures S2-S4).

K562 WT cells = assay: In vitro PDT phototoxicity, K562 WT cells; type: cell-based, human; details: 5 J.cm^−2, 652 nm; with or without Octreotide co-treatment
Procedure: (§1) In vitro PDT experiments were performed to determine the phototoxicity of free Ce6 and conjugates. K562 sst2+ and WT cells were seeded in L-polylysine-coated (10 µg/ml) 96-well (8×10^3/well) and 24-well (4×10^4/well) and incubated overnight in 5% CO2 at 37°C. […] After incubation, cells were washed. Fresh serum-free medium was added, and cells were illuminated with 652 nm to a dose from 0.5 to 5 J cm^−2 at 5 mW.cm^−2. Thereafter, serum-containing medium was added and cells were allowed to grow for an additional 3 days in 5% FCS medium. Toxicity was determined by: measurement of DNA contents using the bisbenzimide fluorescent dye (Hoechst 33258, Boehring Diagnostics, CA, USA) and measurement of mitochondrial dehydrogenase cleavage of WST-1 reagent (Roche Diagnostics, Germany), [39]. Experiments were done in triplicates.

K562 sst2+ cells [2] = assay: Cellular uptake in K562 sst2+ and WT cells; type: cell-based, human; details: 1 µM; serum-free and 5% FCS medium; fluorescence of lysate, λexc = 405 nm
Procedure: Stock solutions of Ce6 and Ce6-conjugates (1 mM) were dissolved in 80% DMSO and were stored in the dark at −20°C. Before experiments, the solutions were diluted to a concentration of 0.1 mM in 20% DMSO. K562 sst2+ or WT (3×10^5) in 1 ml RPMI 1640 serum-free or supplemented with 5% FCS were incubated with Ce6 or with conjugate (1 µM) for 15 min to 24 h in the dark at 37°C. After incubation, the cells were centrifuged, cell pellet dissolved in 2% SDS and fluorescence emission spectra (λexc = 405 nm) recorded. Photosensitizer concentrations were calculated in triplicate according to a calibration curve generated by mixing a known concentration of photosensitizer with a lysated control samples.

K562 sst2+ cells [3] = assay: In vitro PDT phototoxicity, K562 sst2+ cells; type: cell-based, human; details: K562 sst2+; 5 J.cm^−2, 652 nm
Procedure: as §1

[4] = 1-Octanol/PBS partition coefficient; type: physicochemical
Procedure: Partition coefficient. Stock solutions of Ce6 and conjugates (0.6 mM) were prepared in DMSO. Lipophilicity was characterized by their partition coefficient Poct/buffer = Coct/Cbuffer between two solvents 1-octanol (oct) and PBS, pH = 7.4 (buffer). Measurements were carried out in duplicates as described by Cunderlikova et al.

[5] = Steady-state absorption and fluorescence in PBS; type: physicochemical; details: PBS pH = 7.4
Procedure: Steady-State Fluorescence and Absorption Measurements. The fluorescence quantum yields (ΦF) of Ce6 and conjugates in PBS pH 7.4 were determined by a relative method. Ce6 in the buffer at pH 7.4 with the quantum yield of 0.18 [24,32,33] was used as a reference.
The absorption profile of Ce6 and conjugate in PBS of concentration (0.06–1µM) was recorded in Shimadzu spectrophotometer (UV-2101 PC, Duisburg, Germany).
The fluorescence emission of photosensitizers was recorded in a Perkin-Elmer spectrofluorimeter (LS 50B, Massachussetts, USA). Light at 408 nm was used for excitation. The concentration range of compounds matched to the O.D. up to 0.1.

sst2 = biological target: T1, sst2 (Homo sapiens, UniProt P30874); assay: Displacement of [125I]-SS14 binding, membrane preparations of K562 sst2+ cells
T1 construct: expressed in transfected cells; host or cells: K562 (human erythroleukemic) cells stably transfected with LZRS-lyt2-IRES-sst2; membrane preparations
Procedure: Copy DNA of the human sst2 receptor was merged into a LZRS-lyt2-IRES plasmid background (lyt2 being the mouse CD8 receptor). The calcium precipitation method was used to transfect non-adherent K562 cells with the LZRS-lyt2-IRES-sst2. Expression of lyt2 was evaluated by means of FACS analysis using FITC labeled anti-mouse CD8 antibody (BD PharMingen, Netherlands), 1∶160 diluted in FACS-buffer. Clones were grown form Lyt2 positive isolated cells. Vital clones were cultured and tested in time for stability of sst2 receptor expression, by means of both FACS analysis (using FITC labeled octreotate 200 nM) as well as sst2 mRNA expression by RT-PCR as previously described. […] K562 cells were grown in RPMI 1640 containing L-glutamine, 10% heat-inactivated FCS, 50 µg/ml penicillin and 50 µg/ml streptomycin, and were maintained in an incubator at 37°C in an humidified atmosphere of 5% CO2.
The binding potency of Ce6-conjugates to sst2 on K562 sst2 ^+ cells was evaluated on cell membrane preparations.

[6] = Photobleaching under 652 nm irradiation in PBS; type: physicochemical
Procedure: Photobleaching measurements. The loss of photosensitizer absorbance and fluorescence during irradiation was used to monitor photobleaching. Solutions of Ce6 and Ce6-conjugates were prepared in PBS pH = 7.4. The concentration of photosensitizers were adjusted so that all absorb the same number of photons at irradiated region (O.D. = 0.014 at the λirr. = 652 nm (Biolitec pharma, UK). Data was acquired in quartz cuvettes in aerobic conditions using stirring under uniform, measured irradiation at 5 mWcm^-2. At intervals, the cuvette was removed from magnetic stirrer and absorption and fluorescence emission spectrum (λexc = 405 nm) acquired. The initial absorption bleaching rate constants (kblA) for Ce6 and conjugates were evaluated as reported.

[7] = Singlet oxygen quantum yield (SOSGR photooxidation); type: physicochemical; details: PBS pH = 7.4; SOSGR 1 µM; relative to ΦΔ = 0.64 of Ce6; in duplicate
Procedure: Singlet Oxygen Quantum Yield Measurements. Photooxidation of Singlet Oxygen Sensor Green Reagent (SOSGR) (Molecular Probes, NL) was used to determine the singlet oxygen formation by Ce6 and Ce6-conjugates. We used SOSGR because of its high selectivity for singlet oxygen and low sensitivity to hydroxyl radicals/superoxides. Stock solution of SOSGR (5 mM) was prepared in methanol. The final concentration of SOSGR within the photosensitizer solution in PBS pH 7.4 was 1 µM. The irradiation was performed the same as for photobleaching measurements described above. The singlet oxygen quantum yields (Φ?) of conjugates in PBS were determined in duplicate by a relative method with a Φ? = 0.64 of Ce6 in the PBS at pH 7.4 as reference.

T1 sequence (P30874 whole entry): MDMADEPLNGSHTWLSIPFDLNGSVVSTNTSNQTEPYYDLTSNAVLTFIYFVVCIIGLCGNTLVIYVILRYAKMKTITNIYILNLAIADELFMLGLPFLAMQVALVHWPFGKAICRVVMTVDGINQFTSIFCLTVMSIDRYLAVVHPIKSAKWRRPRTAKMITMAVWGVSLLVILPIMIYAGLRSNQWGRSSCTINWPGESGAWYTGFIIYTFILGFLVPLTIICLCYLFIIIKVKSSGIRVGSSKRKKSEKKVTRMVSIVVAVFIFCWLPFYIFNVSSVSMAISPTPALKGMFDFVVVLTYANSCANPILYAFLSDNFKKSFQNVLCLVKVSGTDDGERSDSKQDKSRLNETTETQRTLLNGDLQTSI

Structure (SMILES): C=Cc1c(C)c2cc3nc(c(CC(=O)O)c4[nH]c(cc5nc(cc1[nH]2)C(C)=C5CC)c(C)c4C(=O)O)[C@@H](CCC(=O)N[C@H](Cc1ccccc1)C(=O)N[C@H]1CSSC[C@@H](C(=O)N[C@H](C(=O)N[C@@H](CCCCN)C(=O)N[C@@H](CCCCN)C(=O)N[C@@H](CCCCN)C(=O)N[C@H](Cc2ccccc2)C(=O)N[C@H]2CSSC[C@@H](C(=O)N[C@H](C(=O)O)[C@@H](C)O)NC(=O)[C@H]([C@@H](C)O)NC(=O)[C@H](CCCCN)NC(=O)[C@@H](Cc4c[nH]c5ccccc45)NC(=O)[C@H](Cc4ccc(O)cc4)NC2=O)[C@@H](C)O)NC(=O)[C@H]([C@@H](C)O)NC(=O)[C@H](CCCCN)NC(=O)[C@@H](Cc2c[nH]c4ccccc24)NC(=O)[C@H](Cc2ccc(O)cc2)NC1=O)[C@@H]3C [Conjugate 2, Ce6-[Tyr3]-octreotate-K3-[Tyr3]-octreotate] (X1-[dF]CY[dW]KTCTKKK[dF]CY[dW]KTCT-OH; disulfide 2-7, 13-18)
- pKa, inflection point of pH titration curve ([1]; Fmax/A(λexc) versus pH, sigmoidal fit, PBS titrated with HNO3 and NaOH over pH 4.0-8.5, 0.8 µM, λexc = 408 nm): 6.28±0.035
- PDT toxicity in K562 WT cells (K562 WT cells): comparable with the PDT activity on K562 sst2+ cells
- uptake in sst2+ cells compared to WT cells (factor) (K562 sst2+ cells [2]): no difference
- effect of Octreotide co-treatment (10^−5 M) on phototoxicity (K562 sst2+ cells [3]): not inhibited by Octreotide co-treatment
- fold higher accumulation in 1-octanol than in buffer ([4]; 1-octanol / PBS pH 7.4): > 600 ×
- logD ([4]; 1-octanol / PBS pH = 7.4, Poct/buffer = Coct/Cbuffer, stock 0.6 mM in DMSO, duplicates, read-out: LogP, logarithm of partition coefficient): 2.82 ± 0.34
- full width at half maximum of the Q(0,0) absorption band [5]: 26 nm
- full width at half maximum of the Soret absorption band [5]: 42 nm
- maximum of fluorescence band [5]: 665 nm
- maximum of the Q(0,0) absorption band [5]: 661 nm
- maximum of the Soret absorption band [5]: 405 nm
- ΦF, fluorescence quantum yield ([5]; relative method, Ce6 (0.18) as reference, excitation 408 nm): 0.03
- fold higher potency than conjugate 1 (sst2; ratio of IC50 values, [125I]-SS14 displacement): ~5 ×
- kblA, rate constant of initial absorption bleaching ([6]; PBS pH = 7.4, 652 nm irradiation at 5 mWcm^-2, O.D. = 0.014 at 652 nm, aerobic, stirring): 22.70 x 10^−2 J^−1 cm^2
- ΦΔ, singlet oxygen quantum yield [7]: 0.59±0.03

Structure (SMILES): C=Cc1c(C)c2cc3nc(c(CC(=O)O)c4[nH]c(cc5nc(cc1[nH]2)C(C)=C5CC)c(C)c4C(=O)O)[C@@H](CCC(=O)N[C@@H](CCCCN)C(=O)N[C@@H](CCCCN)C(=O)N[C@@H](CCCCN)C(=O)N[C@H](Cc1ccccc1)C(=O)N[C@H]1CSSC[C@@H](C(=O)N[C@H](C(=O)O)[C@@H](C)O)NC(=O)[C@H]([C@@H](C)O)NC(=O)[C@H](CCCCN)NC(=O)[C@@H](Cc2c[nH]c4ccccc24)NC(=O)[C@H](Cc2ccc(O)cc2)NC1=O)[C@@H]3C [Conjugate 1, Ce6-K3-[Tyr3]-octreotate] (X1-KKK[dF]CY[dW]KTCT-OH; disulfide 5-10)
- pKa, inflection point of pH titration curve [1]: 5.38±0.0615
- logD ([4]; pH 7.4): 0.679 ± 0.04
- IC50 (sst2; membrane preparations of K562 sst2+ cells, displacement by increasing concentrations of unlabeled compound, read-out: IC50, competition with specific binding of [125I]-SS14): 68 nM
- photostability [6]: higher photostability
